Reference: publication PMC10470007 (The Journal of Biological Chemistry, 2023)

Molecular target: T1, 1N3R Tau protein isoform with a V5 insertion between E73 and A74 (V5 epitope tag (simian virus 5 P/V …, strain, labeled with Alexa Fluor 488 NHS (succinimidyl) ester, 2:1 NHS Alexa:Tau-V5))
T1 construct: also called Tau-V5; labeled Tau-V5
Assay: flow cytometry on cells
Conditions: one partner purified

B1: NbV5-AGAP2-Halo-myc (VHH)
VHH: EVQLQASGGGFVQPGGSLRLSCAASGTTSFGDTMGWFRQAPGKEREFVSAISRQGDKHYYADSVKGRFTISRDNSKNTVYLQMNSLRAEDTATYYCAEWMNTRREFITPYWGQGTQVTVSS
notes: also called NbV5 (yeast surface display)
B1 showed a Kd of 29 nM.
